Biological target: mouse alpha (2) macroglobulin receptor (mouse, UniProt Q91ZX7 20-4545)
Assay: cell-based or functional assay

mouse alpha (2) macroglobulin receptor, sequence (Q91ZX7 other isoform, or with tags, fused parts or gaps limits assumed): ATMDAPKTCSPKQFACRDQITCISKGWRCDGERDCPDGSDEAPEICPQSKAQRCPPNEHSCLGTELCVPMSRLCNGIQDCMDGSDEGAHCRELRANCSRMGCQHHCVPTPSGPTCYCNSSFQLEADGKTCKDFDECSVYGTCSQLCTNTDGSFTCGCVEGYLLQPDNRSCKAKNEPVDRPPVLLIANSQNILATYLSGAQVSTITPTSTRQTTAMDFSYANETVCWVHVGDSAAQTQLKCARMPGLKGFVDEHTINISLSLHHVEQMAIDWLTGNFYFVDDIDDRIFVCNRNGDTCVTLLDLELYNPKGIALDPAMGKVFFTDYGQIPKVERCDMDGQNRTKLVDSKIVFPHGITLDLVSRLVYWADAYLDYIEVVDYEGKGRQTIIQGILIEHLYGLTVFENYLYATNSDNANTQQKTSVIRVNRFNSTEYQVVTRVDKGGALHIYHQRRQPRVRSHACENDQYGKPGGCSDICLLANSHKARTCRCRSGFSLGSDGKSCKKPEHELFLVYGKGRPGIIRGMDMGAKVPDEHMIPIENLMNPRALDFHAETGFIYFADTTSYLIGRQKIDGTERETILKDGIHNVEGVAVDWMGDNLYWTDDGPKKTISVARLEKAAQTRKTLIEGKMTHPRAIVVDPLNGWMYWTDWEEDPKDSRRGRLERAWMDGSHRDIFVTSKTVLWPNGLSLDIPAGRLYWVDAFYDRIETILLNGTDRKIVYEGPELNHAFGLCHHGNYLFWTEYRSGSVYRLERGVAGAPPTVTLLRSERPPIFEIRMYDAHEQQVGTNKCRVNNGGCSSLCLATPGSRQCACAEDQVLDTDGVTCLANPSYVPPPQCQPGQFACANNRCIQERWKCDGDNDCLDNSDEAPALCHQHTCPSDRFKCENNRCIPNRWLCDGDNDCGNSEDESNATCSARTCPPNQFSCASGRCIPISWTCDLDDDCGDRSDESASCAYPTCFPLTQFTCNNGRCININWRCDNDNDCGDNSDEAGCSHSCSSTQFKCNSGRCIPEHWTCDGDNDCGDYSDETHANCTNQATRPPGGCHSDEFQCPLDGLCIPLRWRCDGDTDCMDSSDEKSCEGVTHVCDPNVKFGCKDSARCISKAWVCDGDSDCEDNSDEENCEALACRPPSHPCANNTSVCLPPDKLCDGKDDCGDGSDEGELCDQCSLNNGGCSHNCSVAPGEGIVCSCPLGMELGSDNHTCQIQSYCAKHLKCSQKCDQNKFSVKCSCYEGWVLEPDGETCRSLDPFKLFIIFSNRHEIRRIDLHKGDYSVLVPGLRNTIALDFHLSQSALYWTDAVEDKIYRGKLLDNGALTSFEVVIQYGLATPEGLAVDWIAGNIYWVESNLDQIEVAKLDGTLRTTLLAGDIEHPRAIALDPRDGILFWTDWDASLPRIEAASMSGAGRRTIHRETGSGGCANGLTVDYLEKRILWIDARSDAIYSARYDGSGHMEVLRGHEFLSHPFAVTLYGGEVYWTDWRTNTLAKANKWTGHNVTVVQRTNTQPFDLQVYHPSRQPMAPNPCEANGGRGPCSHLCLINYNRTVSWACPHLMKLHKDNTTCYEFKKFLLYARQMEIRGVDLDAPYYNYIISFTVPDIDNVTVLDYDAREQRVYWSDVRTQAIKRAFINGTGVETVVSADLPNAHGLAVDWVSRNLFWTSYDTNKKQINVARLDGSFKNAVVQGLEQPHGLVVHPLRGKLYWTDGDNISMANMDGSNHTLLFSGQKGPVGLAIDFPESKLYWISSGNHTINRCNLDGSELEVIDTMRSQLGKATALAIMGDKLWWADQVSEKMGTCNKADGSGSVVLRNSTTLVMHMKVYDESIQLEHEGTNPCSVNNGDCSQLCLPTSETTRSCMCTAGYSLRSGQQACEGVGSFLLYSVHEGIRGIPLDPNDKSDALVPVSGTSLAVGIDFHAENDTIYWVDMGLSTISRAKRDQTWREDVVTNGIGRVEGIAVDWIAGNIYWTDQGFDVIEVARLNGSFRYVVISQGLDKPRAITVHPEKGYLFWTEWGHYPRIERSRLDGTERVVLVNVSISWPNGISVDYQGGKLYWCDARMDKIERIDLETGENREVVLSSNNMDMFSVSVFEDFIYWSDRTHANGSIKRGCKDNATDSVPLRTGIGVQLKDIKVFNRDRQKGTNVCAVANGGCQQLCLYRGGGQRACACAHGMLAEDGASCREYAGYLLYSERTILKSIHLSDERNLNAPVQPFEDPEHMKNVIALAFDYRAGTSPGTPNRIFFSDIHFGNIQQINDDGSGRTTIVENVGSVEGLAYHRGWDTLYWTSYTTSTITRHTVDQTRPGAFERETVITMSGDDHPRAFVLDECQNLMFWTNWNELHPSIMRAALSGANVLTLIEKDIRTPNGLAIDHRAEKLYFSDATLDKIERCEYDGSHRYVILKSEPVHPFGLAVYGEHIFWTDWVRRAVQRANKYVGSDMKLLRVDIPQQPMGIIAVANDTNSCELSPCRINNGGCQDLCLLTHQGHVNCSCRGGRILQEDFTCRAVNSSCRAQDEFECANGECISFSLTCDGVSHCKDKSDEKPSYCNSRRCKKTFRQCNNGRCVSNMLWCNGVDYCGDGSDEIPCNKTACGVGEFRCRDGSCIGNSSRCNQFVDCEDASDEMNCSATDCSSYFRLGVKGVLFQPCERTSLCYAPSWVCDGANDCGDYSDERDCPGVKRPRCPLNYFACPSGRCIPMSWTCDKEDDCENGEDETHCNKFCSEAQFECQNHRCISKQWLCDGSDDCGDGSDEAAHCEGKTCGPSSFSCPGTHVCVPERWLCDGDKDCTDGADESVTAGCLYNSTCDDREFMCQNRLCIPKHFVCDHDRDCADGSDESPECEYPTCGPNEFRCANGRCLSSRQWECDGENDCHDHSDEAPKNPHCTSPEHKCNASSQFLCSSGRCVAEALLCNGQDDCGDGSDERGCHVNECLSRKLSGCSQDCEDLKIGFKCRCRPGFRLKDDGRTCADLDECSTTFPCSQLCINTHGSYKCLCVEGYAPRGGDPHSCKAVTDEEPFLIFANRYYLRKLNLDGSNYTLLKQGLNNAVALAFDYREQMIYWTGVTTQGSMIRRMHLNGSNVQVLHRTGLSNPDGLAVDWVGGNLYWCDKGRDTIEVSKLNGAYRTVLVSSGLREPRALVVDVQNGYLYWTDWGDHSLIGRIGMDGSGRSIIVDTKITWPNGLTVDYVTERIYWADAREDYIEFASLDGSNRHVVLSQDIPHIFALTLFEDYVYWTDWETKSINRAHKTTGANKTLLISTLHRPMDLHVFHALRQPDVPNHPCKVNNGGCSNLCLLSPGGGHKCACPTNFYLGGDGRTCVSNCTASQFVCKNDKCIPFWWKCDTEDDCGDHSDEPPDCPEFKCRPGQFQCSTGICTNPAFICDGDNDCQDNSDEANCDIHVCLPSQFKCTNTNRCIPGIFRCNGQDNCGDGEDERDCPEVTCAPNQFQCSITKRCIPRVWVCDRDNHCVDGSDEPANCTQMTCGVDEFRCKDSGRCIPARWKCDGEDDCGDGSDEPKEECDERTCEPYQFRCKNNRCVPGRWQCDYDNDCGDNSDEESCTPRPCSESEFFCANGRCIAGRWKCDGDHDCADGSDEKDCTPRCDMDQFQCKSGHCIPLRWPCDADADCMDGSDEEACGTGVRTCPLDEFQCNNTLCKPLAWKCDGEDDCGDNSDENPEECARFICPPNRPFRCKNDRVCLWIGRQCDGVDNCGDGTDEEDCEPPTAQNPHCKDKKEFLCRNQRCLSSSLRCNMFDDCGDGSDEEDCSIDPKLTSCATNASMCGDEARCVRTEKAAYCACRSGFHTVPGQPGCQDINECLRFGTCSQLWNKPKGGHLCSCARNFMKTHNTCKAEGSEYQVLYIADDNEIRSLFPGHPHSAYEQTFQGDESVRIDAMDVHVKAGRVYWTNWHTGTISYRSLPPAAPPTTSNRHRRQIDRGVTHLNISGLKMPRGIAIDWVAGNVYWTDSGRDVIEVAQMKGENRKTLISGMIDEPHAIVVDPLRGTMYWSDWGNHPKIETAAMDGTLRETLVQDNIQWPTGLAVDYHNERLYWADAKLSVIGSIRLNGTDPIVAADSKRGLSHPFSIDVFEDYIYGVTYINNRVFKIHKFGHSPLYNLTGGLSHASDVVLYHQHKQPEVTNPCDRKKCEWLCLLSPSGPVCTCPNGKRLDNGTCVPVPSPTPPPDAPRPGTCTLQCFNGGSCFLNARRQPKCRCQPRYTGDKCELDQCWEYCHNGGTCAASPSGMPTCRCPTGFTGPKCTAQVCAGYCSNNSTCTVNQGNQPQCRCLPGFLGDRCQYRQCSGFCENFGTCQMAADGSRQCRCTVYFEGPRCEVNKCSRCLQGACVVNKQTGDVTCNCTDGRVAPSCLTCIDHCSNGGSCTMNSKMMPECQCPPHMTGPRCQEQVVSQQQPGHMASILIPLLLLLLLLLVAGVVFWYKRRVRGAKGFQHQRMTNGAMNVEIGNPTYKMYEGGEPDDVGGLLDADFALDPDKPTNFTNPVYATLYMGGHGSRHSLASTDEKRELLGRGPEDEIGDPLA

Row | Molecule | molar excess of free HSP required to inhibit by 50% the re-presentation of gp96-chaperoned peptides at a gp96 concentration of 40 µg/ml (RAW264.7 cells) (fold molar excess) | molar excess of free HSP required to inhibit by 50% the re-presentation of gp96-chaperoned peptides at a gp96 concentration of 40 µg/ml (RAW264.7 cells)
1 | heat shock protein hsp70 (ligand) | 13 | –
2 | heat shock protein hsp90 (ligand) | 2 | –
3 | heat shock protein gp96 (ligand, UniProt P08113 22-802, looked up) DDEVDVDGTVEEDLGKSREGSRTDDEVVQREEEAIQLDGLNASQIRELREKSEKFAFQAEVNRMMKLIINSLYKNKEIFLRELISNASDALDKIRLISLTDENALAGNEELTVKIKCDKEKNLLHVTDTGVGMTREELVKNLGTIAKSGTSEFLNKMTEAQEDGQSTSELIGQFGVGFYSAFLVADKVIVTSKHNNDTQHIWESDSNEFSVIADPRGNTLGRGTTITLVLKEEASDYLELDTIKNLVRKYSQFINFPIYVWSSKTETVEEPLEEDEAAKEEKEESDDEAAVEEEEEEKKPKTKKVEKTVWDWELMNDIKPIWQRPSKEVEEDEYKAFYKSFSKESDDPMAYIHFTAEGEVTFKSILFVPTSAPRGLFDEYGSKKSDYIKLYVRRVFITDDFHDMMPKYLNFVKGVVDSDDLPLNVSRETLQQHKLLKVIRKKLVRKTLDMIKKIADEKYNDTFWKEFGTNIKLGVIEDHSNRTRLAKLLRFQSSHHSTDITSLDQYVERMKEKQDKIYFMAGSSRKEAESSPFVERLLKKGYEVIYLTEPVDEYCIQALPEFDGKRFQNVAKEGVKFDESEKTKESREATEKEFEPLLNWMKDKALKDKIEKAVVSQRLTESPCALVASQYGWSGNMERIMKAQAYQTGKDISTNYYASQKKTFEINPRHPLIRDMLRRIKEDEDDKTVMDLAVVLFETATLRSGYLLPDTKAYGDRIERMLRLSLNIDPEAQVEEEPEEEPEDTSEDAEDSEQDEGEEMDAGTEEEEEETEKESTEKDEL | – | ~6 fold molar excess

From US20040072993A1 (UNIVERSITY OF CONNECTICUT HEALTH CENTER, published 2004)
